The test deals with S. aureus FakA (S. aureus).

For “FakB1(A158L) (from UniProt X5EH37 1-288) (natural protein)”, the apparent KM for FakB1(A158L) in the FA kinase assay (0.2 µM FakA, [14C]16:0) amounted to 0.13 µM.

Take “S. aureus wild-type FakB1 (from UniProt X5EH37 1-288) (natural protein)”: the apparent KM for FakB1 in the FA kinase assay (0.2 µM FakA, [14C]16:0) was found to be 0.13 µM.

For the substance “FakB1(A121I) (from UniProt X5EH37 1-288) (natural protein)”, the apparent KM for FakB1(A121I) in the FA kinase assay (0.2 µM FakA, [14C]16:0) amounted to 0.1 µM.

The values above are taken from publication doi:10.1101/2021.09.16.460654.
